Reference: patent US20030144191

B1: TRP-PLIK2-GST fusion protein (TRP-PLIK2 kinase domain fused to GST) (protein)
chain: PMTMSSPLSQAKIMQTGGGYVNWAFSEGDETGVFSIKKKWQTCLPSTCDSDSSRSEQHQKQAQDSSLSDNSTRSAQSSECSEVGPWLQPNTSFWINPLRRYRPFARSHSFRFHKEEKLMKICKIKNLSGSSEIGQGAWVKAKMLTKDRRLSKKKKNTQGLQVPIITVNACSQSDQLNPEPGENSISEEEYSKNWFTVSKFSHTGVEPYIHQKMKTKEIGQCAIQISDYLKQSQEDLSKNSLWNSRSTNLNRNSLLKSSIGVDKISASLKSPQEPHHHYSAIERNNLMRLSQTIPFTPVQLFAGEEITVYRLEESSPLNLDKSMSSWSQRGRAAMIQVLSREEMDGGLRKAMRVVSTWSEDDILKPGQVFIVKSFLPEVVRTWHKIFQESTVLHLCLREIQQQRAAQKLIYTFNQVKPQTIPYTPRFLEVFLIYCHSANQWLTIEKYMTGEFRKYNNNNGDEITPTNTLEELMLAFSHWTYEYTRGELLVLDLQGVGENLTDPSVIKPEVKQSRGMVFGPANLGEDAIRNFIAKHHCNSCCRKLKLPDLKRNDYSPERINSTFGLEIKIESAEEPPARETGRNSPEDDMQL
32P incorporation (kinase assay, SDS-PAGE, autoradiography) (Histon): MBP was determined to be a preferred substrate over Histon.
32P incorporation (kinase assay, SDS-PAGE, autoradiography) (MBP): MBP was determined to be a preferred substrate over Histon.
incorporated 32P in the substrate (kinase assay, SDS-PAGE, autoradiography) (MBP): predicted TRP-PLIK2 kinase domain was determined to have kinase activity as demonstrated by the phosphorylated MBP protein
